Reference: article PMC8115288

B1: GST-CTD (C-terminal domain of HIV-1 integrase, aa 201-288) [HIV-1 His6-SUMO-INI1_(183-304) [not stated] (parent)
chain 1: VDIIATDIQTKELQKQITKIQNFRVYYRDSRNPLWKGPAKLLWKGEGAVVIQDNSDIKVVPRRKAKIIRDYGKQMAGDDCVASRQDED
chain 2: PEVLVPIRLDMEIDGQKLRDAFTWNMNEKLMTPEMFSEILCDDLDLNPLTFVPAIASAIRQQIESYPTDSILEDQSDQRVIIKLNIHVGNISLVDQFEWDMSEKENSPEKFALKLCSELGLG

Variants of: B1
Test: Alpha assay
Settings: with His6-SUMO-INI1_(183-304); low salt conditions; parent: 100; read off a plot

**Q.** With chain 1 R28A as the variant, how does the percent of parent read?
**A.** The percent of parent was 8 % of WT.
